For this experiment, the target named is T1, EGFP-RABL2B, Q9UNT1.
T1 chain: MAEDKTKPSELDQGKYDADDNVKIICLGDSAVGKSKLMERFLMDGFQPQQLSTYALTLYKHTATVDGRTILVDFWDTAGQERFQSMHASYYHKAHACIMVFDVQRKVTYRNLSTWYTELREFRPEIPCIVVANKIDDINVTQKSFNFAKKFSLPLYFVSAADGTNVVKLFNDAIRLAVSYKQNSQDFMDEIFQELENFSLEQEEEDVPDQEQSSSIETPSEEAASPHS
As to the kind of experiment: co-immunoprecipitation (IP anti-EGFP, Western blot anti-Myc), IP/input band quantitation. The settings on record: chain shown with the change; lysates from HEK293T cells; Input is 2.5% of lysate used for IP; parent: 100. In general terms: In western blotting, separated proteins are transferred to a membrane and probed.

B1: CD8α-(HTR6-CT)-myc, Q9R1C8 L398A; L399A; L400A (protein)
chain: MVPEPGPVNSSTPAWGPGPPPAPGGSGWVAAALCVVIVLTAAANSLLIALICTQPALRNTSNFFLVSLFTSDLMVGLVVMPPAMLNALYGRWVLARGLCLLWTAFDVMCCSASILNLCLISLDRYLLILSPLRYKLRMTAPRALALILGAWSLAALASFLPLLLGWHELGKARTSAPGQCRLLASLPYVLVASGVTFFLPSGAICFTYCRILLAARKQAVQVASLTTGTATAGQALETLQVPRTPRPGMESADSRRLTTKHSRKALKASLTLGILLSMFFVTWLPFFVASIAQAVCDCISPGLFDVLTWLGYCNSTMNPIIYPLFMRDFKRALGRFVPCVHCPPEHRASPASPSMWTSHSGARPGLSLQQVLPLPLPPNSDSDSASGGTSGLQLTAQAAAPGEATRDPPPPTRAPTVVNFFVTDSVEPEIRQHPLGSPMN
Take B1: the percent of parent was found to be 243%.
